Source: patent US20240117030A1 (Pfizer, published 2024)
Where a chain is given by its changes, count along the chain named. One block for each binder: values may come before it.

Key:
human TSLP (long form) = target: T1, human TSLP (long form) (human, UniProt Q969D9 29-159, Biotinylated on the Avi tag in some assays; glycosylated (Expi293F expression)); test: bridging sandwich ELISA: human TSLP coated, Tri-Fab-Fc titrated, IL-13-FLAG added, detected with HRP anti-FLAG (OD450nm)
T1 construct: biotinylated in some assays; also called lfhTSLP; hTSLP
Experimental: For this method, 25 μL/well of 1 μg/mL recombinant human TSLP (in PBS pH7.2) was coated onto a 384-well clear flat bottom Maxisorp plates (NUNC) overnight at 4° C. and blocked with PBS without Mg²⁺ and Ca²⁺ with 3% BSA. Serially diluted Tri-Fab-Fc variants were added to the plates and incubated for 1 hour at room temperature (RT). After washing away the unbound Tri-Fab-Fc by washing with buffer (PBS without Mg²⁺ and Ca²⁺ with 0.05% tween 20), 25 μL/well of 100 ng/mL IL-13-FLAG (Pfizer Inc) was added to the plates and incubated at RT for one hour. The Tri-Fab-Fc bound to both TSLP and IL-13 was detected by HRP conjugated anti-FLAG secondary antibody (Sigma, Cat #A8592).

human IL-13 [1] = target: T2, human IL-13 (human, UniProt P35225 35-146); test: cell-based or functional assay
human IL-13 [2] = target: T2, human IL-13; test: SPR 37°C, antibody captured by anti-human IgG, human IL-13 1.56-50 nM
Experimental: The affinity values (KD) were determined using Surface Plasmon Resonance (SPR) for 10 lead variants identified from bioassay screening.

T2 sequence (P35225 35-146 limits assumed, form in doubt): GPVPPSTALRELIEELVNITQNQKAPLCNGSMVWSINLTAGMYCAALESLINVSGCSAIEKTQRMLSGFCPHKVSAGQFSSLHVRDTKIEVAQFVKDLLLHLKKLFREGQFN

- EC50 (read off the curve) (human TSLP (long form)): ~0.6 nM
B1: IL413TSLP-0008 (trispecific antibody, human IgG1, kappa, lambda)
heavy: EVQLVESGGGLVQPGGSLRLSCAASGFTFSSYAMSWVRQAPGKGLEWVASISSGDTTYYPDSVKGRFTISRDNAKNSLYLQMNSLRAEDTAVYYCARNEGYYFGLTLWGQGTLVTVSSASTKGPSVFPKAPSSKSTSGGTAALGCLVKDYFPEPVTVSWNSGALTSGVHTFPAVLQSSGLYSLSSSVTVPSSSLGTQTYICNVNHKPSNTKVDKKVEPKSCDKTHTCPPCPAPEAAGAPSVFLFPPKPKDTLMISRTPEVTCVVVDVSHEDPEVKFNWYVDGVEVHNAKTKPREEQYNSTYRVVSVLTVLHQDWLNGKEYKCKVSNKALPAPIEKTISKAKGQPREPQVCTLPPSREEMTKNQVSLWCLVKGFYPSDIAVEWESNGQPENNYKTTPPVLDSDGSFFLYSKLTVDKSRWQQGNVFSCSVMHEALHNHYTQKSLSLSPGK
chain 1: SYVLTQPPSVSVAPGQTARITCGGNNLGSKSVHWYQQKPGQAPVLVVYDDSDRPSWIPERFSGSNSGNTATLTISRGEAGDEADYYCQVWDSSSDHVVFGGGTKLTVLASTKGPSVFPLAPSSKSTSGGTAALGCLVKDYFPEPVTVSWNSGALTSGVHTFPAVLQSSGLYSLSSVVTVPSSSLGTQTYICNVNHKPSNTKVDKKVEPKSCGGGGSEVTLRESGPALVKPTQTLTLTCTFSGFSLSNFGEGLSWIRQPPGKGLEWLAHIYWDDDKRYNPSLKSRLTISKDTSRNQVVLTMTNMDPVDTATYYCARRETVFYWYFDVWGQGTTVTVSSASTKGPSVFPEAPSSKSTSGGTAALGCLVKDYFPEPVTVSWNSGALTSGVHTFPAVLQSSGLYSLGSVVTVPSSSLGTQTYICNVNHKPSNTKVDKKVEPKSCDKTHTCPPCPAPEAAGAPSVFLFPPKPKDTLMISRTPEVTCVVVDVSHEDPEVKFNWYVDGVEVHNAKTKPREEQYNSTYRVVSVLTVLHQDWLNGKEYKCKVSNKALPAPIEKTISKAKGQPREPQVYTLPPCREEMTKNQVSLSCAVKGFYPSDIAVEWESNGQPENNYKTTPPVLDSDGSFFLVSKLTVDKSRWQQGNVFSCSVMHEALHNHYTQKSLSLSPGK
light 1: DIQMTQSPSSLSASVGDRVTITCKASESVDHFGWSLVHWYQQKPGKAPKLLIYRASNLESGVPSRFSGSGSGTDFTLTISSLQPEDFATYYCQQSNEDPWTFGGGTKVEIKRTVAAPSVFIFPPSDEQLKSGTASVSCLLNNFYPREAKVQWKVDNALQSGNSQESVTEQDSKDSTYSLDSTLTLSKADYEKHKVYACEVTHQGLSSPVTKSFNRGEC
light 2: B1 light 1 with E27Q, H31E, F32D, W34D, L36Y, V37M, H38N, R54A, W100P, D180K
chain 2: QMQLVESGGGVVQPGRSLRLSCAASGFTFRTYGMHWVRQAPGKGLEWVAVIWYDGSNKHYADSVKGRFTITRDNSKNTLNLQMNSLRAEDTAVYYCARAPQWELVHEAFDIWGQGTMVTVSSGQPKAAPSVTLFPPSSEELQANKATLVCLISDFYPGAVTVAWKADSSPVKAGVETTTPSKQSNNKYAASSYLSLTPEQWKSHRSYSCQVTHEGSTVEKTVAPTECS

- EC50 (read off the curve) (human TSLP (long form)): ~0.5 nM
B2: IL413TSLP-0002 (trispecific antibody, human IgG1, kappa, lambda)
heavy: B1 heavy
chain 1: QMQLVESGGGVVQPGRSLRLSCAASGFTFRTYGMHWVRQAPGKGLEWVAVIWYDGSNKHYADSVKGRFTITRDNSKNTLNLQMNSLRAEDTAVYYCARAPQWELVHEAFDIWGQGTMVTVSSGQPKAAPSVTLFPPSSEELQANKATLVCLISDFYPGAVTVAWKADSSPVKAGVETTTPSKQSNNKYAASSYLSLTPEQWKSHRSYSCQVTHEGSTVEKTVAPTECSGGGGSEVTLRESGPALVKPTQTLTLTCTFSGFSLSNFGEGLSWIRQPPGKGLEWLAHIYWDDDKRYNPSLKSRLTISKDTSRNQVVLTMTNMDPVDTATYYCARRETVFYWYFDVWGQGTTVTVSSASTKGPSVFPEAPSSKSTSGGTAALGCLVKDYFPEPVTVSWNSGALTSGVHTFPAVLQSSGLYSLGSVVTVPSSSLGTQTYICNVNHKPSNTKVDKKVEPKSCDKTHTCPPCPAPEAAGAPSVFLFPPKPKDTLMISRTPEVTCVVVDVSHEDPEVKFNWYVDGVEVHNAKTKPREEQYNSTYRVVSVLTVLHQDWLNGKEYKCKVSNKALPAPIEKTISKAKGQPREPQVYTLPPCREEMTKNQVSLSCAVKGFYPSDIAVEWESNGQPENNYKTTPPVLDSDGSFFLVSKLTVDKSRWQQGNVFSCSVMHEALHNHYTQKSLSLSPGK
light 1: B1 light 1
light 2: B1 light 1 with E27Q, H31E, F32D, W34D, L36Y, V37M, H38N, R54A, W100P, D180K
chain 2: SYVLTQPPSVSVAPGQTARITCGGNNLGSKSVHWYQQKPGQAPVLVVYDDSDRPSWIPERFSGSNSGNTATLTISRGEAGDEADYYCQVWDSSSDHVVFGGGTKLTVLASTKGPSVFPLAPSSKSTSGGTAALGCLVKDYFPEPVTVSWNSGALTSGVHTFPAVLQSSGLYSLSSVVTVPSSSLGTQTYICNVNHKPSNTKVDKKVEPKSC

- EC50 (read off the curve) (human TSLP (long form)): ~0.6 nM
B3: IL413TSLP-0007 (trispecific antibody, human IgG1, kappa, lambda)
heavy: EVTLRESGPALVKPTQTLTLTCTFSGFSLSNFGEGLSWIRQPPGKGLEWLAHIYWDDDKRYNPSLKSRLTISKDTSRNQVVLTMTNMDPVDTATYYCARRETVFYWYFDVWGQGTTVTVSSASTKGPSVFPEAPSSKSTSGGTAALGCLVKDYFPEPVTVSWNSGALTSGVHTFPAVLQSSGLYSLGSVVTVPSSSLGTQTYICNVNHKPSNTKVDKKVEPKSCDKTHTCPPCPAPEAAGAPSVFLFPPKPKDTLMISRTPEVTCVVVDVSHEDPEVKFNWYVDGVEVHNAKTKPREEQYNSTYRVVSVLTVLHQDWLNGKEYKCKVSNKALPAPIEKTISKAKGQPREPQVYTLPPCREEMTKNQVSLSCAVKGFYPSDIAVEWESNGQPENNYKTTPPVLDSDGSFFLVSKLTVDKSRWQQGNVFSCSVMHEALHNHYTQKSLSLSPGK
chain 1: SYVLTQPPSVSVAPGQTARITCGGNNLGSKSVHWYQQKPGQAPVLVVYDDSDRPSWIPERFSGSNSGNTATLTISRGEAGDEADYYCQVWDSSSDHVVFGGGTKLTVLASTKGPSVFPLAPSSKSTSGGTAALGCLVKDYFPEPVTVSWNSGALTSGVHTFPAVLQSSGLYSLSSVVTVPSSSLGTQTYICNVNHKPSNTKVDKKVEPKSCGGGGSEVQLVESGGGLVQPGGSLRLSCAASGFTFSSYAMSWVRQAPGKGLEWVASISSGDTTYYPDSVKGRFTISRDNAKNSLYLQMNSLRAEDTAVYYCARNEGYYFGLTLWGQGTLVTVSSASTKGPSVFPKAPSSKSTSGGTAALGCLVKDYFPEPVTVSWNSGALTSGVHTFPAVLQSSGLYSLSSSVTVPSSSLGTQTYICNVNHKPSNTKVDKKVEPKSCDKTHTCPPCPAPEAAGAPSVFLFPPKPKDTLMISRTPEVTCVVVDVSHEDPEVKFNWYVDGVEVHNAKTKPREEQYNSTYRVVSVLTVLHQDWLNGKEYKCKVSNKALPAPIEKTISKAKGQPREPQVCTLPPSREEMTKNQVSLWCLVKGFYPSDIAVEWESNGQPENNYKTTPPVLDSDGSFFLYSKLTVDKSRWQQGNVFSCSVMHEALHNHYTQKSLSLSPGK
light 1: B1 light 1 with E27Q, H31E, F32D, W34D, L36Y, V37M, H38N, R54A, W100P, D180K
light 2: B1 light 1
chain 2: B1 chain 2

- EC50 (read off the curve) (human TSLP (long form)): ~0.6 nM
B4: IL413TSLP-0001 (trispecific antibody, human IgG1, kappa, lambda)
heavy: B3 heavy
chain 1: QMQLVESGGGVVQPGRSLRLSCAASGFTFRTYGMHWVRQAPGKGLEWVAVIWYDGSNKHYADSVKGRFTITRDNSKNTLNLQMNSLRAEDTAVYYCARAPQWELVHEAFDIWGQGTMVTVSSGQPKAAPSVTLFPPSSEELQANKATLVCLISDFYPGAVTVAWKADSSPVKAGVETTTPSKQSNNKYAASSYLSLTPEQWKSHRSYSCQVTHEGSTVEKTVAPTECSGGGGSEVQLVESGGGLVQPGGSLRLSCAASGFTFSSYAMSWVRQAPGKGLEWVASISSGDTTYYPDSVKGRFTISRDNAKNSLYLQMNSLRAEDTAVYYCARNEGYYFGLTLWGQGTLVTVSSASTKGPSVFPKAPSSKSTSGGTAALGCLVKDYFPEPVTVSWNSGALTSGVHTFPAVLQSSGLYSLSSSVTVPSSSLGTQTYICNVNHKPSNTKVDKKVEPKSCDKTHTCPPCPAPEAAGAPSVFLFPPKPKDTLMISRTPEVTCVVVDVSHEDPEVKFNWYVDGVEVHNAKTKPREEQYNSTYRVVSVLTVLHQDWLNGKEYKCKVSNKALPAPIEKTISKAKGQPREPQVCTLPPSREEMTKNQVSLWCLVKGFYPSDIAVEWESNGQPENNYKTTPPVLDSDGSFFLYSKLTVDKSRWQQGNVFSCSVMHEALHNHYTQKSLSLSPGK
light 1: B1 light 1 with E27Q, H31E, F32D, W34D, L36Y, V37M, H38N, R54A, W100P, D180K
light 2: B1 light 1
chain 2: B2 chain 2

- CD23: Fold versus IL13-0001 (human IL-13 [1]): 0.81 fold
- CD23 IC50 [pM] Ave. n = 2 (human IL-13 [1]): 7.4 pM
- Kd (human IL-13 [2]): 0.0717 nM
B5: IL13-0259 (antibody, IgG1, V domains shown)
VH: EVQLVESGGGLVQPGGSLRLSCAASGFTFSSYAMSWVRQAPGKGLEWVASISTGDTTYYPDSVKGRFTISRDNAKNSLYLQMNSLRAEDTAVYYCARNEGYYFGLTQWGRGTLVTVSS
VL: DIQMTQSPSSLSASVGDRVTITCRASQSVDHFGWSLVHWYQQKPGKAPKLLIYRASNLESGVPSRFSGSGSGTDFTLTISSLQPEDFATYYCQQSNEDPWTFGGGTKVEIK
notes: IgG1 effector-null/kappa IgG
